Literature values, collected in patent US8865021B2, “Compositions of lipids and cationic peptides” (Camurus AB, priority 2003, dated 2014).
Residues, ends and D or L forms follow the SMILES beside them. No end group written: not given here.

Columns and labels:
[1] = for Isoelectric pH: Table 2; for isoelectric point: approximate values
[2] = salmon vs human calcitonin

Molecule	Isoelectric pH [1]	isoelectric point [1]	potency by weight relative to the human hormone [2]
CC[C@H](C)[C@@H]1NC(=O)[C@H](Cc2ccc(O)cc2)NC(=O)[C@@H](N)CSSC[C@@H](C(=O)N2CCC[C@H]2C(=O)N[C@@H](CC(C)C)C(=O)NCC(N)=O)NC(=O)[C@H](CC(N)=O)NC(=O)[C@H](CCC(N)=O)NC1=O [Oxytocin, reference compound]	5.51 pH	–	–
CC(C)[C@@H]1NC(=O)[C@H](CCCNC(=N)N)NC(=O)[C@H](Cc2ccccc2)NC(=O)[C@@H](NC(=O)[C@H](Cc2c[nH]c3ccccc23)NC(=O)[C@H](CCCNC(=N)N)NC(=O)[C@@H](N)CCCNC(=N)N)CSSC[C@@H](C(=O)N[C@@H](CCCNC(=N)N)C(N)=O)NC(=O)[C@H](CCCCN)NC(=O)[C@H](CCCNC(=N)N)NC(=O)[C@H](Cc2ccc(O)cc2)NC(=O)[C@@H]2CSSC[C@H](NC1=O)C(=O)N[C@@H](Cc1ccc(O)cc1)C(=O)N[C@@H](CCCCN)C(=O)NCC(=O)N[C@@H](Cc1ccccc1)C(=O)N2 [Polyphemusin II] (HELM PEPTIDE1{R.R.W.C.F.R.V.C.Y.K.G.F.C.Y.R.K.C.R.[am]}$PEPTIDE1,PEPTIDE1,4:R3-17:R3|PEPTIDE1,PEPTIDE1,8:R3-13:R3$$$V2.0)	10.1 pH	–	–
NC(=O)CC[C@@H]1NC(=O)[C@H](Cc2ccccc2)NC(=O)[C@H](Cc2ccc(O)cc2)NC(=O)[C@@H](N)CSSC[C@@H](C(=O)N2CCC[C@H]2C(=O)N[C@@H](CCCN=C(N)N)C(=O)NCC(N)=O)NC(=O)[C@H](CC(N)=O)NC1=O [Vassopresin, reference compound]	8.06 pH	around 8.0 pH	–
Alteplase	7.61 pH	–	–
Becaplermin	9.38 pH	–	–
Calcitonin (salmon) [reference compound]	8.86 pH	~8.9 pH	around 50 times
Follitropin-beta	5.91 pH	–	–
GMCSF	5.21 pH	–	–
IL-1 beta	5.91 pH	–	–
IL-1alpha	5.3 pH	–	–
IL-4	9.26 pH	–	–
IL-5	7.02 pH	–	–
IL-6	6.21 pH	–	–
IL-7	8.72 pH	–	–
IL-8	9.24 pH	–	–
IL-10	7.63 pH	–	–
IL-13	8.81 pH	–	–
IL-15	4.52 pH	–	–
IL-17	8.62 pH	–	–
IL-18	5.04 pH	–	–
Indolicidin (ILPWKWPWWPWRR; ends and bridges not checked; UniProt P33046 131-143, looked up) [Indolicidin (e.g. bovine), antibacterial, antifungal, anticancer, antiviral, antiparasite]	12.01 pH	–	–
Insulin α	3.79 pH	around 4 pH	–
Intercellular Adhesion Molecule 1	9.51 pH	–	–

Molecule	Isoelectric pH [1]	isoelectric point [1]	potency by weight relative to the human hormone [2]
Interleukin-1 receptor antagonist	8.51 pH	–	–
Lepirudin	4.04 pH	around 4 pH	–
Magainin I	10 pH	–	–
Magainin II	10 pH	–	–
Mellitin	12.02 pH	–	–
OspA	6.72 pH	–	–
Pneumadin	4.36 pH	–	–
Polyphemusin I (RRWCFRVCYRGFCYRKCR; ends and bridges not checked; cysteine pairing not given here; UniProt P14215 1-18, looked up) [antibacterial, antifungal, antiviral]	10.33 pH	–	–
Protegrin [Protegrin (e.g. swine)]	10.66 pH	–	–
Secretin (HSDGTFTSELSRLRDSARLQRLLQGLV; ends and bridges not checked; UniProt P63298 33-59, looked up) [Secretin (e.g. swine), pancreatic assessment, 27 amino acids, reference compound]	9.45 pH	–	–
Somatostatin [Somatostatin (& analogues), reference compound]	9.58 pH	–	–
Somatotropin	5.27 pH	–	–
Tachyplesin I (KWCFRVCYRGICYRRCR; ends and bridges not checked; cysteine pairing not given here; UniProt P14213 24-40, looked up) [antibacterial, antiviral, 17 amino acids]	9.93 pH	–	–
Tuftsin	11 pH	–	–
octreotide [reference compound]	–	around 8.0 pH	–
IL-11 (protein, UniProt P20809 22-199, looked up) Interleukin-11: PGPPPGPPRVSPDPRAELDSTVLLTRSLLADTRQLAAQLRDKFPADGDHNLDSLPTLAMSAGALGALQLPGVLTRLRADLLSYLRHVQWLRRAGGSSLKTLEPELGTLQARLDRLLRRLQLLMSRLALPQPPPDPPAPPLAPPSSAWGGIRAAHAILGGLHLTLDWAVRGLLLLKTRL	11.16 pH	–	–
IL-19 (protein, UniProt Q9UHD0 25-177, looked up, Melanoma differentiation associated protein-like protein) Interleukin-19: LRRCLISTDMHHIEESFQEIKRAIQAKDTFPNVTILSTLETLQIIKPLDVCCVTKNLLAFYVDRVFKDHQEPNPKILRKISSIANSFLYMQKTLRQCQEQRQCHCRQEATNATRVIHDNYDQLEVHAAAIKSLGELDVFLAWINKNHEVMFSA	7.8 pH	–	–
IL-24 (protein, UniProt Q13007 52-206, looked up, Melanoma differentiation associated protein 7) Interleukin-24: QEFHFGPCQVKGVVPQKLWEAFWAVKDTMQAQDNITSARLLQQEVLQNVSDAESCYLVHTLLEFYLKTVFKNYHNRTVEVRTLKSFSTLANNFVLIVSQLQPSQENEMFSIRDSAHRRFLLFRRAFKQLDVEAALTKALGEVDILLTWMQKFYKL	8.6 pH	–	–
IL-26 (protein, UniProt Q9NPH9 22-171, looked up) Interleukin-26: KHKQSSFTKSCYPRGTLSQAVDALYIKAAWLKATIPEDRIKNIRLLKKKTKKQFMKNCQFQEQLLSFFMEDVFGQLQLQGCKKIRFVEDFHSLRQKLSHCISCASSAREMKSITRMKRIFYRIGNKGIYKAISELDILLSWIKKLLESSQ	9.99 pH	–	–
human Chorionic Gonadotropin-beta (protein, UniProt P0DN86 21-165, looked up, Infertility) Choriogonadotropin subunit …: SKEPLRPRCRPINATLAVEKEGCPVCITVNTTICAGYCPTMTRVLQGVLPALPQVVCNYRDVRFESIRLPGCPRGVNPVVSYAVALSCQCALCRRSTTDCGGPKDHPLTCDDPRFQDSSSSKAPPPSLPSPSRLPGPSDTPILPQ	8.65 pH	–	–
Interferon-alpha 1/13 (protein, UniProt P01562 24-189, looked up) Interferon alpha-1/13: CDLPETHSLDNRRTLMLLAQMSRISPSSCLMDRHDFGFPQEEFDGNQFQKAPAISVLHELIQQIFNLFTTKDSSAAWDEDLLDKFCTELYQQLNDLEACVMQEERVGETPLMNADSILAVKKYFRRITLYLTEKKYSPCAWEVVRAEIMRSLSLSTNLQERLRRKE	5.18 pH	–	–
Interferon-gamma (protein, UniProt P01579 24-161, looked up) Interferon gamma: QDPYVKEAENLKKYFNAGHSDVADNGTLFLGILKNWKEESDRKIMQSQIVSFYFKLFKNFKDDQSIQKSVETIKEDMNVKFFNSNKKKRDDFEKLTNYSVTDLNVQRKAIHELIQVMAELSPAAKTGKRKRSQMLFRG	9.54 pH	–	–
Filgrastim (protein, UniProt P09919 31-207, looked up, N-terminal methionine, non-glycosylated, neutropenia) Granulocyte …: TPLGPASSLPQSFLLKCLEQVRKIQGDGAALQEKLVSECATYKLCHPEELVLLGHSLGIPWAPLSSCPSQALQLAGCLSQLHSGLFLYQGLLQALEGISPELGPTLDTLQLDVADFATTIWQQMEELGMAPALQPTQGAMPAFASAFQRRAGGVLVASHLQSFLEVSYRVLRHLAQP	5.43 pH	–	–
